Results on eight molecules are retold here after US20140056903A1 (Regeneron, published 2014).

Changes are numbered by the printed parent chain. In names and notes the source's numbering stands.

The labels stand for the following.
T1: human GFRα3 expressed with a C-terminal mFc tag (human)
T1 construct: also called hGFRα3-mFc
T1 chain: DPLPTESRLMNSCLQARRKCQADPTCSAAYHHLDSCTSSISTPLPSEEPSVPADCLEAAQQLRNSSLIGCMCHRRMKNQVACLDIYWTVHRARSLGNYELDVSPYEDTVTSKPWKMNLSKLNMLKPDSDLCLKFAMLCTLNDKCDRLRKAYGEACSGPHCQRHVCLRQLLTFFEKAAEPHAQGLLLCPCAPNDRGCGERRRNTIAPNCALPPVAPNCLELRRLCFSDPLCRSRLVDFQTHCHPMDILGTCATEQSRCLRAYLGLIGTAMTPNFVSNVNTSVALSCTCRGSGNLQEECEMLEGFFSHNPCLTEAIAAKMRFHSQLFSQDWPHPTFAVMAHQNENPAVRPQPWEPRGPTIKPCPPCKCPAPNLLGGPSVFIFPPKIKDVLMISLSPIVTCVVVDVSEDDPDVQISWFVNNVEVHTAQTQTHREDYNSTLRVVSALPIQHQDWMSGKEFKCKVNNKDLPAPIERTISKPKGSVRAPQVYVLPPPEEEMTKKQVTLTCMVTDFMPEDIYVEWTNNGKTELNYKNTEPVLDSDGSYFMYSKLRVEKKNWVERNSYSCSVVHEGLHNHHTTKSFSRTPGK

T2: human GFRα3 on HEK293/hGFRα3/hRET/SRE-luc cells (human, UniProt O60609 32-382)
T2 sequence: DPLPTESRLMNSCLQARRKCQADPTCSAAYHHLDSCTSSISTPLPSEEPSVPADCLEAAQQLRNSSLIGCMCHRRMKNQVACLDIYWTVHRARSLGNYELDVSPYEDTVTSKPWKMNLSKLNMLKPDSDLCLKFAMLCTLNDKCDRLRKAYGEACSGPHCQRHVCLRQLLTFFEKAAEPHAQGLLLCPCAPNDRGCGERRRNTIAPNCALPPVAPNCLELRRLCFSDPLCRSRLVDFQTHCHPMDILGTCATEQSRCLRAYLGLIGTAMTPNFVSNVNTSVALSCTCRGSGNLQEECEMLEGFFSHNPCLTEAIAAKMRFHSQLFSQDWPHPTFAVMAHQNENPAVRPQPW

B1: H4H2342P (antibody, human IgG4, V domains shown)
VH: EVQLLESGGGLVQPGGSLRLSCAASGFTFSTYAMSWVRQAPGKGLEWVSAIRGNGVNTYYGDSMKGRFTISRDNSKDTLYLQMNSLRAEDTAVYYCAKNKWELLVFEYWGQGTLVTVSS
VL: DIQMTQSPSSLSASVGDRVTITCRASQDISNYLAWYQQKPGKVPKLLIYAASTLQSGVPFRFSGSGSGTDFTLTISSLQPEDVATYYCQKYNSAPPFGPGTKVDIK
notes: human IgG4 Fc (H4H)
B2: H4H2236N3 (antibody, human IgG4, V domains shown)
VH: EVQLLESGGNLVQPGGSLRLSCAASGFTFSSYAMTWVRQAPGKGLEWVSTISGSGTSTYYADSVKGRFTISRDNSRDTVFLQMNSLRAEDTAVYYCSKPSALRFLHWLAMDVWGQGTLVTVSS
VL: DIQMTQSPSSLSAFVGDRVTITCRASQDIRNYLDWFQQKPGKAPKSLIYAASNLQSGVPSRFGGSGSGTDFTLTINSLQPEDFVTYYCQQYNSYPPTFGGGTKVEIK
notes: human IgG4 Fc (H4H)
B3: H4H2243N2 (antibody, human IgG4, V domains shown)
VH: QVQLVQSGAEVKKPGASVKVSCKASGYTFTSYGIIWVRQAPGQGLEWMGWISGYNGNTNYAQNLQGRVTMTTDTSTTTAYMELRSLRSDDTAVYYCARWGIATRPYYYYGMDVWGQGTTVTVSS
VL: B2 VL with F14S, R30T, D34A, N53S, R61K, G63S, N76S, V84A, G100P, E105D
notes: human IgG4 Fc (H4H)
B4: H4H2355S (antibody, human IgG4, V domains shown)
VH: EVQLVESGGGLVQPGGSLRLSCAASGFTFSSYAMSWVRQVPGKGLEWVSAISGSGDNTYNAESVKGRFTISRDNSKNMLYLQMNSLRAEDTAVYYCAKTKFSSSLLFDYWGQGTLVTVSS
VL: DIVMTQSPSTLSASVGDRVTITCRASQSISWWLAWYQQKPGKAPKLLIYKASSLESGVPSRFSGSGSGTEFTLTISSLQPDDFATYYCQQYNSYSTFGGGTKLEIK
notes: human IgG4 Fc (H4H)
B5: H4H2212N (antibody, human IgG4, V domains shown)
VH: EVQLLESGGGLVQPGGSLRLSCAASGFTFSSYAMSWVRQGPGKGLEWVSGISGSGGSTYNADSVKGRFTISRDNSKNTLYLQMNSLRAEDTAVYYCAKDSGTYWYYFDYWGQGILVTVSS
VL: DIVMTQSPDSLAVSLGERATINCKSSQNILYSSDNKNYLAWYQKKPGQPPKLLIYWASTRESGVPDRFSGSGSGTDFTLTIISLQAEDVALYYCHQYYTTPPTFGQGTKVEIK
notes: human IgG4 Fc (H4H)
B6: H4H2291S (antibody, human IgG4, V domains shown)
VH: EVQLVESGGGLVQPGESLRLSCAASGFTFSNYAMSWVRQAPGKGLEWVSVISGSGGSTYYADSVKGRFTMSRDNSKNTLYLQMNSLRAEDTAVYYCAKPPSRAARYFNYGMDVWGQGTTVTVSS
VL: AIRMTQSPSSVSASVGDRVTITCRASQGISSWLAWYQQKPGKAPKLLIYAASSLQSGVPSRFSGSGSGTDFTLTISSLQPEDFATYYCQQANSFPFTFGGGTKVEIK
notes: human IgG4 Fc (H4H)
B7: H4H2296S (antibody, human IgG4, V domains shown)
VH: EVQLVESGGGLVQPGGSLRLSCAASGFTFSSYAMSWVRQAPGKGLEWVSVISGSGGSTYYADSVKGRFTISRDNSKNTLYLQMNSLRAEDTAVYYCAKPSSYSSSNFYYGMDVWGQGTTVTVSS
VL: B6 VL with A1D, R3V, Q55R, S76T, Q90H, A91T, G100P
notes: human IgG4 Fc (H4H)
B8: H4H2295S (antibody, human IgG4, V domains shown)
VH: EVQLVESGGGLVQAGGSLRLSCVASGFTFSSYAMSWVRQAPGKGLEWVSAISGSGGSTYSADSVKGRFTISRDNSKNTLYLQMNSLRAEDTAVYYCTKPSSYSSSNFYYGMDVWGQGTTVTVSS
VL: B6 VL with A1D, R3Q, A50T, G68R, A91T, F94L, F96L, G100P
notes: human IgG4 Fc (H4H)

Usually Kd stands for the constant that tells how readily two partners part at equilibrium. The low end stands for higher affinity, the high end for lower affinity. In general, koff refers to the first-order rate constant of dissociation. As usually defined, the kon is the second-order rate constant of association. Low readings indicate slow association, high ones fast association.

The target in one test is T3, human GFRα3 expressed with a C-terminal myc-myc-hexahistidine tag (human, UniProt O60609 32-374, biotinylated (sites not given) in ELISA format 2 and in the Octet cross-competition; not in SPR).
T3 construct: also called hGFRα3-mmh; hGFRα3-mmH
In words: Octet cross-competition; biotin-hGFRα3-mmH pre-saturated with first antibody H4H2291S. As for the experimental part:
(§1) A cross-competition assay was conducted to assess the ability of select antibodies to compete with one another for binding to human GFRα3 using an Octet RED384 biosensor (Fortebio Inc.). The entire experiment was performed at 25° C. with the flow rate of 1000 rpm in Octet HBST buffer (0.01 M HEPES pH7.4, 0.15M NaCl, 3 mM EDTA, 0.05% v/v Surfactant P20, 0.1 mg/mL BSA). To assess whether 2 antibodies were able to compete with one another for binding to their respective epitopes on biotinylated recombinant human GFRα3 expressed with a C-terminal myc-myc-hexahistidine tag (biotin-hGFRα3-mmH; SEQ ID:370), around ˜1.2 nm of biotin-hGFRα3-mmH was first captured onto streptavidin-coated Octet sensor tips (Fortebio Inc, #18-5019) by submerging the tips for 1 minute into a 10 μg/mL solution of biotin-hGFRα3-mmH. The antigen coated sensor tips were then placed into wells containing 25 μg/mL solution of a first anti-GFRα3 monoclonal antibody for 4 minutes to saturate the biotin-hGFRα3-mmH surface. The sensor tips were then subsequently dipped into wells containing 25 μ/mL solution of a second anti-GFRα3 monoclonal antibody. The sensor tips were washed in Octet HBST buffer in between every step of the experiment. The real-time binding response was monitored during the course of the experiment and the binding response at the end of every step was recorded as shown in FIG. 9. The response of mAb-2 binding to biotin-hGFRα3-mmH pre-complexed with the first antibody was compared and competitive/non-competitive behavior of different anti-GFRα3 monoclonal antibodies was determined.
In general terms: BLI is a label-free optical method that tracks binding on a fibre tip over time.
B1: the “binding response of second antibody (nm)” value is -0.01 nm.
On the same count and under the same terms, with B2 the figure was 0.01 nm; with B3, 0 nm.
B4: the “binding response of second antibody (nm)” value came to 0 nm.
On the same count and under the same terms, with B5 the figure was 1.96 nm; with B6, 0.05 nm; with B7, -0.01 nm.
B8: the “binding response of second antibody (nm)” value worked out at 0 nm.

The next test concerns the target T3, human GFRα3 expressed with a C-terminal …. In words: Octet cross-competition; biotin-hGFRα3-mmH pre-saturated with first antibody H4H2350P. As for the experimental part:
as §1
Regarding B1, the “binding response of second antibody (nm)” value was determined as 1.8 nm.
Turning to B2, the “binding response of second antibody (nm)” value stood at 1.98 nm.
Same read-out and setting: with B3 the figure was 1.72 nm.
For B4, the “binding response of second antibody (nm)” value turned out to be 1.77 nm.
Still for that read-out and setting: in the case of B5 it was 1.57 nm; in that of B6, 2.57 nm.
The same measure, in the same setting: in the case of B7 it was 2.1 nm; in that of B8, 2.05 nm.

In another test the target is T1, human GFRα3 expressed with a C-terminal …. As to the kind of experiment: SPR, Ab captured, 37C. Here is the method: Antibodies were tested for binding to human GFRα3 expressed with either a C-terminal myc-myc-hexahistidine tag (hGFRα3-mmh; SEQ ID: 370, a C-terminal hFc tag (hGFRα3-hFc; SEQ ID:371), or a C-terminal mFc tag (hGFRα3-mFc; SEQ ID:372), as well as monkey GFRα3 expressed with a C-terminal myc-myc-hexahistidine tag (MfGFRα3-mmh; SEQ ID:373). Anti-GFRα3 antibodies were captured on either a goat anti-mouse IgG polyclonal antibody (GE Healthcare, #BR-1008-38) or a mouse anti-human IgG monoclonal antibody (GE Healthcare, #BR-1008-39) surface created through direct amine coupling to a Biacore CM5 sensor chip. Kinetic experiments were carried out using HBS-EP (10 mM HEPES, 150 mM NaCl, 3 mM EDTA, 0.05% Surfactant P20, at pH 7.4) or PBS buffer containing 0.05% v/v surfactant P20 as both the running buffer and the sample buffer. Binding to human GFRα3-mmh or monkey GFRα3-mmh was evaluated by injecting several concentrations ranging from 200 to 7.4 nM (3-fold dilutions) across the captured antibody surface. Binding to human GFRα3-mFc or human GFRα3-hFc was evaluated by injecting several concentrations ranging from 100 to 3.7 nM (3-fold dilutions) across the captured antibody surface. Antibody-antigen association was monitored for up to 4 minutes, while dissociation in buffer was monitored for up to 20 minutes. Kinetic association (kₐ) and dissociation (kd) rate constants were determined by processing and fitting the data to a 1:1 binding model using Scrubber 2.0c curve fitting software. Binding dissociation equilibrium constants (KD) and dissociative half-lives (t_{1/2}) were calculated from the kinetic rate constants as: KD (M)=kd/kₐ and t_{1/2} (min)=[ln 2/(60*kd)].
For orientation: Surface plasmon resonance follows binding to a sensor surface in real time, without labels.
The molecule B1 gave an equilibrium dissociation constant (Kd) of 0.0354 nM, a koff of 4.28e-05 s⁻¹, a kon of 1.21e+06 M⁻¹ s⁻¹ and a t1/2 of 4.5 h.
The like results for B4 were, in that order, 0.031 nM, 3.39e-05 s⁻¹, 1.1e+06 M⁻¹ s⁻¹ and 5.68 h.
The like results for B6 were, in that order, 0.0289 nM, 3.84e-05 s⁻¹, 1.33e+06 M⁻¹ s⁻¹ and 5.02 h.
As for B7, binding was characterised by a dissociation constant (Kd) of 0.0294 nM, the koff amounted to 4.74e-05 s⁻¹, the kon is 1.61e+06 M⁻¹ s⁻¹ and the t1/2 was 4.07 h.
The like results for B8 were, in that order, 0.0301 nM, 4.88e-05 s⁻¹, 1.62e+06 M⁻¹ s⁻¹ and 3.95 h.

The next test addresses T3, human GFRα3 expressed with a C-terminal …. As to the kind of experiment: Octet cross-competition; biotin-hGFRα3-mmH pre-saturated with first antibody H4H2292S. Here is the method: as §1
For B1, the “binding response of second antibody (nm)” value turned out to be 2.16 nm.
The same measure, in the same setting: in the case of B2 it was 2.24 nm; in that of B3, 1.91 nm.
Same read-out and setting: in the case of B4 it was 2.07 nm.
With B5, the “binding response of second antibody (nm)” value came out at 1.78 nm.
For B6, the “binding response of second antibody (nm)” value came to 2.81 nm.
As for B7, the “binding response of second antibody (nm)” value worked out at 2.36 nm.
On the same count and under the same terms, with B8 the figure was 2.31 nm.

A further test has as its target T2, human GFRα3 on …. In words: cell-based or functional assay.
B1: the “IC50 (SRE-luc, HEK293/hGFRα3/hRET cells, 100 pM hARTEMIN-mmH)” value worked out at 1 nM.
The same measure, in the same setting: with B2 the figure was 1.5 nM; with B3, 0.3 nM.
With B4, the “IC50 (SRE-luc, HEK293/hGFRα3/hRET cells, 100 pM hARTEMIN-mmH)” value stood at 2.3 nM.
Regarding B5, the “IC50 (SRE-luc, HEK293/hGFRα3/hRET cells, 100 pM hARTEMIN-mmH)” value came out at 0.8 nM.
Still for that read-out and setting: with B6 the figure was 1.3 nM; with B7, 1.4 nM.
With B8, the “IC50 (SRE-luc, HEK293/hGFRα3/hRET cells, 100 pM hARTEMIN-mmH)” value was found to be 1.5 nM.
